The text below walks through data of paper PMC7406681, “Structural characterization of the C-terminal domain of SARS-CoV-2 nucleocapsid protein”.

Data set [1] addresses T1, SARS-CoV-2 nucleocapsid C-terminal domain (N-CTD) (SARS-CoV-2 (Wuhan-Hu-1), UniProt P0DTC9 248-364). The experiment in a line: EMSA. Conditions: protein: recombinant; tags: N-terminal His6 removed by TEV; residual Gly-Ala-Ser at N-terminus; chain copies: 2.
Data set [2] deals with T1, SARS-CoV-2 nucleocapsid C-terminal …. The experiment in a line: EMSA; N-CTD:DNA molar ratios 2:1 to 10:1. The note with it: protein: recombinant, tags: N-terminal His6 removed by TEV, residual Gly-Ala-Ser at N-terminus, chain copies: 2.

B1: 17-mer ssRNA (5' UTR SL3/TRS) (ssRNA)
RNA: UGUUCUCUAAACGAACU
On to B1, for which the binding result in data set [1] is given as “binds”.

B2: 17-mer ssDNA (DNA mimic of SL3/TRS RNA) (ssDNA)
DNA: TGTTCTCTAAACGAACT
As to B2, the binding result in data set [2] is “binds”.

B3: 17-bp dsDNA (DNA mimic of SL3/TRS RNA) (dsDNA)
DNA 1: TGTTCTCTAAACGAACT
DNA 2: AGTTCGTTTAGAGAACA
For the molecule B3, in data set [2] (blunt), the binding result is reported as “binds”.
